{
  "source": "the RNAGym collection of RNA variant scans (doi:10.1073/pnas.2313332121)",
  "parents": {"B1": {"name": "TPR t1 (parent)", "chain": "GACCAAUCUGCCCUCAGAGCUCGAGAACAUCUUCGGAUGCAGAGGAGGCAGGCUUCGGUGGCGCGAUAGCGCCAACGUCCUCAACCUCCAAUGCAUCCCACCACAUGAUGAUGCCUGAAGAGCCUUGGUUUUUUG"}},
  "data": [
    {"variants_of": "B1", "experiment": "polymerase ribozyme fitness, log enrichment relative to wild type (log ratio); higher = more active; in vitro selection for triplet polymerase activity", "in_short": "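Input and output libraries were sequenced on Illumina after a single in vitro selection round, run in triplicate on PCR-built, transcribed mutant libraries of each subunit of a heterodimeric triplet polymerase ribozyme. Selection annealed libraries to a biotinylated primer, the partner subunit and triplets, incubated them frozen at −7 °C, then gel-excised extended constructs for streptavidin-bead capture and RT-PCR. Genotypes with ≥10 input reads and ≥1 read per output were kept. Fitness is the logarithm, taken in base 2, of genotype enrichment divided by wild-type enrichment, using inverse-variance-weighted replicate averages.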", "values": [
      {"variant": "G52U G63C U92A", "polymerase ribozyme fitness (log ratio)": -4.96},
      {"variant": "G42C A111G", "polymerase ribozyme fitness (log ratio)": -1.3},
      {"variant": "C28U U112A", "polymerase ribozyme fitness (log ratio)": -1.56},
      {"variant": "C49G C72G G117A U125A", "polymerase ribozyme fitness (log ratio)": -4.73},
      {"variant": "C115A U133A", "polymerase ribozyme fitness (log ratio)": 0.127},
      {"variant": "G69C U133G", "polymerase ribozyme fitness (log ratio)": -1.57},
      {"variant": "A100C A111G", "polymerase ribozyme fitness (log ratio)": 0.924},
      {"variant": "G42A A100C U112G", "polymerase ribozyme fitness (log ratio)": -4.73},
      {"variant": "G60C G135U", "polymerase ribozyme fitness (log ratio)": -1.23},
      {"variant": "A83C C115A", "polymerase ribozyme fitness (log ratio)": 0.0144},
      {"variant": "C11G U21A", "polymerase ribozyme fitness (log ratio)": -0.298},
      {"variant": "G48U C97G", "polymerase ribozyme fitness (log ratio)": -4.5},
      {"variant": "A75G C79U", "polymerase ribozyme fitness (log ratio)": -0.682},
      {"variant": "A41G A46U G77U", "polymerase ribozyme fitness (log ratio)": -3.75},
      {"variant": "C4G G47A C79A A90G G120A", "polymerase ribozyme fitness (log ratio)": -3.84},
      {"variant": "C72G U92A A118U U131C", "polymerase ribozyme fitness (log ratio)": -3.98},
      {"variant": "C8A G57C C64U C123U U129A U133G", "polymerase ribozyme fitness (log ratio)": 1.06},
      {"variant": "C72U C79U G122A", "polymerase ribozyme fitness (log ratio)": -0.67},
      {"variant": "C13G C89A A90C U130C", "polymerase ribozyme fitness (log ratio)": -3.77},
      {"variant": "G47U C49G C62U C88A A95C C123A", "polymerase ribozyme fitness (log ratio)": -4.59},
      {"variant": "G19A A41U U81A C82A U112A", "polymerase ribozyme fitness (log ratio)": -0.674},
      {"variant": "A29G A90C", "polymerase ribozyme fitness (log ratio)": -2.34},
      {"variant": "G10A U131A", "polymerase ribozyme fitness (log ratio)": -0.339},
      {"variant": "A5G", "polymerase ribozyme fitness (log ratio)": -0.0211},
      {"variant": "A41G G117C", "polymerase ribozyme fitness (log ratio)": -4.18},
      {"variant": "G52A G71C A95C G113C", "polymerase ribozyme fitness (log ratio)": -6.98},
      {"variant": "A24G C34A G45U G57U C72U", "polymerase ribozyme fitness (log ratio)": -5.61},
      {"variant": "G36C G42C G47C C53G C56U G61U C72U C86G U116C", "polymerase ribozyme fitness (log ratio)": -4.72},
      {"variant": "G17U A27U G61U", "polymerase ribozyme fitness (log ratio)": -6.16},
      {"variant": "A46C U87C C89G U92C", "polymerase ribozyme fitness (log ratio)": -2.75},
      {"variant": "G35C A95G", "polymerase ribozyme fitness (log ratio)": -4.43},
      {"variant": "U54A G71C A83C G120U", "polymerase ribozyme fitness (log ratio)": -0.105},
      {"variant": "A5G U38G C114A", "polymerase ribozyme fitness (log ratio)": -2.6},
      {"variant": "G10A G48C C64A G113A A119G C124G", "polymerase ribozyme fitness (log ratio)": -6.38},
      {"variant": "C3U C49G", "polymerase ribozyme fitness (log ratio)": -1.16},
      {"variant": "C12A C85A", "polymerase ribozyme fitness (log ratio)": -2.59},
      {"variant": "U54A C70U C73A C124U U129G", "polymerase ribozyme fitness (log ratio)": -0.505},
      {"variant": "A29G C79U", "polymerase ribozyme fitness (log ratio)": -1.06},
      {"variant": "G47A G63A C85G", "polymerase ribozyme fitness (log ratio)": -3.45},
      {"variant": "A37C C76A", "polymerase ribozyme fitness (log ratio)": -1.6},
      {"variant": "C13G C124U", "polymerase ribozyme fitness (log ratio)": 0.0672},
      {"variant": "C12U G113U", "polymerase ribozyme fitness (log ratio)": -1.65},
      {"variant": "A43C C53G C70U A95C", "polymerase ribozyme fitness (log ratio)": -5.1},
      {"variant": "G44C C70G A119U", "polymerase ribozyme fitness (log ratio)": -5.47},
      {"variant": "C13U C56A C62U C97A C102U", "polymerase ribozyme fitness (log ratio)": -5.15},
      {"variant": "U7A G47A U96A", "polymerase ribozyme fitness (log ratio)": -1.96},
      {"variant": "C8U A68G A111C", "polymerase ribozyme fitness (log ratio)": -3.15},
      {"variant": "G61A U130A", "polymerase ribozyme fitness (log ratio)": 0.0628},
      {"variant": "G63A A118U", "polymerase ribozyme fitness (log ratio)": 0.468},
      {"variant": "G61A A66U U78C A118G", "polymerase ribozyme fitness (log ratio)": -1.83},
      {"variant": "U9A C49U G110A", "polymerase ribozyme fitness (log ratio)": -1.43},
      {"variant": "C3G A27G C53U C72G C79A C98G U116C", "polymerase ribozyme fitness (log ratio)": -6.51},
      {"variant": "C64A A83G U92G C99U C104A", "polymerase ribozyme fitness (log ratio)": -8.04},
      {"variant": "C11A C76A", "polymerase ribozyme fitness (log ratio)": -2.77},
      {"variant": "G60C U129G", "polymerase ribozyme fitness (log ratio)": -1.43},
      {"variant": "C89U U133A", "polymerase ribozyme fitness (log ratio)": -0.271},
      {"variant": "A5U C62G A100U G120U", "polymerase ribozyme fitness (log ratio)": -3.08},
      {"variant": "C22U G113C", "polymerase ribozyme fitness (log ratio)": -6.59},
      {"variant": "C13A C88G", "polymerase ribozyme fitness (log ratio)": -3.12},
      {"variant": "G52U C56A", "polymerase ribozyme fitness (log ratio)": -1.92},
      {"variant": "C8A G61U", "polymerase ribozyme fitness (log ratio)": -0.146},
      {"variant": "A26U G71A C72U A90C U106A", "polymerase ribozyme fitness (log ratio)": -5.08},
      {"variant": "A5G U109G C123G U130C", "polymerase ribozyme fitness (log ratio)": -4.03},
      {"variant": "C88U G110A", "polymerase ribozyme fitness (log ratio)": -1.46},
      {"variant": "C20A C40A C115A", "polymerase ribozyme fitness (log ratio)": -4.58},
      {"variant": "G58C C73A U81A C89A", "polymerase ribozyme fitness (log ratio)": -3.31},
      {"variant": "G44A A111U", "polymerase ribozyme fitness (log ratio)": -4.79},
      {"variant": "C3U G23A", "polymerase ribozyme fitness (log ratio)": -5.54},
      {"variant": "G63A C86U", "polymerase ribozyme fitness (log ratio)": -0.411},
      {"variant": "U54G U59C", "polymerase ribozyme fitness (log ratio)": -1.85},
      {"variant": "C3G G69U A90U G93A U112C", "polymerase ribozyme fitness (log ratio)": -1.26},
      {"variant": "U7G G17A G39A U55A G61A C82G C115A U130C", "polymerase ribozyme fitness (log ratio)": -1.97},
      {"variant": "C104U G128C", "polymerase ribozyme fitness (log ratio)": -1.84},
      {"variant": "C53U C72A U81G G120A U129A", "polymerase ribozyme fitness (log ratio)": -1.13},
      {"variant": "G10U C22G U106A G120C", "polymerase ribozyme fitness (log ratio)": -2.7},
      {"variant": "G45U G93C C124G", "polymerase ribozyme fitness (log ratio)": 0.153},
      {"variant": "A24C A26G", "polymerase ribozyme fitness (log ratio)": -4.53},
      {"variant": "G71A U78C C123U U131A", "polymerase ribozyme fitness (log ratio)": -0.879},
      {"variant": "A66C C72U C80U U126G G128A", "polymerase ribozyme fitness (log ratio)": -4.37},
      {"variant": "C56U U87A C123G", "polymerase ribozyme fitness (log ratio)": 1.81},
      {"variant": "A29U", "polymerase ribozyme fitness (log ratio)": -1.67},
      {"variant": "C8G G19C C20U U21G U54C U87G", "polymerase ribozyme fitness (log ratio)": -4.85},
      {"variant": "C99U U130A", "polymerase ribozyme fitness (log ratio)": -3.71},
      {"variant": "U125A U131C", "polymerase ribozyme fitness (log ratio)": -0.281}
    ]}
  ]
}
